System: PPO-deficient BT3 E. coli (ΔPPO)
Test: PPO-inhibiting herbicide tolerance test of PPO variants in E. coli (growth on herbicide-containing LB agar)
Format: cell-based
Conditions: CyPPO19 variants in BT3 (ΔPPO) E. coli; LB agar with 0 to 2,000 μM herbicide, 37° C., dark, 16-20 hours
Source text: To enhance the PPO-inhibiting herbicide resistance of CyPPO19 and CyPPO18, PPO variant genes of the above example 2 were constructed. They were transformed to BT3 (ΔPPO) strain which is deficient of PPO activity and cultured in LB media with PPO-inhibiting herbicide, thereby examining whether growth of transformed BT3 was not inhibited.
BT3 competent cells were transformed with the pET303-CyPPO19 (wild type), pET303-CyPPO18 (wild type) plasmids, and those with a mutation(s) constructed (refer to example 2) via heat shock method, and were cultured in LB agar media containing ampicillin.
Single colony transformed with each CyPPO gene was cultured in 3 mL of LB broth (LPSS) containing ampicillin for more than 12 hours, and then was subcultured in LB broth until absorbance (OD600) reached 0.5 to 1. Then, it was diluted with LB broth to OD600=0.5. Again, the diluted solution was serially diluted 4 times by a factor of one tenth.
The LB agar media (LB 25 g/L, Bacto agar 12 g/L) containing ampicillin (100 μg/mL) and 0 to 2,000 μM of various herbicides were prepared. Herbicide solution stocks were all prepared in DMSO.
Then, 10 μL of each diluted solution of E. coli was dropped on the plate and cultured at 37° C. under dark for 16-20 hours. PPO-inhibiting herbicide resistance was evaluated with the extent of E. coli growth containing each gene was observed.
The extent of herbicide resistance was evaluated by the relative growth of variants to that of wild type, and listed in Tables 9 and 10 and FIGS. 3 to 32.
In Tables 9 and 10, the tolerance level of variants showing equivalent resistance to wild type was presented as ‘−’, and was done as ‘+’ per each 10-fold resistance until ‘+++++’ as maximal resistance.
FIGS. 3 to 30 and FIGS. 31 and 32 show the transformed E. coli growth result of CyPPO19 WT and its variants and CyPPO18 WT and its variants, respectively. The concentrations of herbicides were written above the photographs of tolerance test. A 10-fold dilution series of spots were shown from OD600=0.5 of the leftmost spot to OD600=0.00005 of the rightmost one.

Molecule	tolerance level relative to wild type, Carfentrazone	tolerance level relative to wild type, Flumioxazin	tolerance level relative to wild type, Fomesafen	tolerance level relative to wild type, Oxyfluorfen	tolerance level relative to wild type, Saflufenacil	tolerance level relative to wild type, Sulfentrazone	tolerance level relative to wild type, Tiafenacil
CyPPO19 V165C + I408W + F360V: variant of CyPPO19 PPO protein (SEQ ID NO: 1) (protein, Synthetic_PPO of Thermosynechococcus elongatus PKUAC-SCTE542 (comprising GenBank No. CP032152.1)) MSEVDVAIVGGGLSGLSLAWRLQQSAPQYSVVLLEASDRLGGNITTQTAEGFVWELGPNSFAPTPALLQLIAEVGLQSELIRGDRHLPRYIYWRGQLYPLQPTRPLALATSNLLSPWGKVRAALGALGFVPPYLGSGDESVNSFFRRHLGQEVAERLVAPFVSGCYAGDPQQLSAAAAFRRIAQLEKLGGGLIAGALHLRRQQAPKPKPPTSVQMRPGELGSFKEGLAALPRAIAQQLKAPIHLQTPVQEITPDPKGGYLLRSGEQTWRARSVVLATPAYQTAELVAPFQPAIARVLATIPYPTVACVVLAYPAGLGRSVRPGFGVLIPRSQGIRTLGTIWSSCLFPQRTPAGWQVFTSVIGGATDPDLASLSEEAIVQQVQQDLNRLLDLPAAKARLLGMKVWRRAWPQYMVGYPEQWQQVTHALSQTPGLFLCSNYAEGVALGDRVEHGNRTAAAVAAYLSGGQP	+ (‘+’ per each 10-fold resistance)	++++ (‘+’ per each 10-fold resistance)	+++ (‘+’ per each 10-fold resistance)	++++ (‘+’ per each 10-fold resistance)	++++ (‘+’ per each 10-fold resistance)	+++ (‘+’ per each 10-fold resistance)	++++ (‘+’ per each 10-fold resistance)
CyPPO19 A167L + V305M + F360T: variant of CyPPO19 PPO protein (SEQ ID NO: 1) (protein, Synthetic_PPO of Thermosynechococcus elongatus PKUAC-SCTE542 (comprising GenBank No. CP032152.1)) MSEVDVAIVGGGLSGLSLAWRLQQSAPQYSVVLLEASDRLGGNITTQTAEGFVWELGPNSFAPTPALLQLIAEVGLQSELIRGDRHLPRYIYWRGQLYPLQPTRPLALATSNLLSPWGKVRAALGALGFVPPYLGSGDESVNSFFRRHLGQEVAERLVAPFVSGVYLGDPQQLSAAAAFRRIAQLEKLGGGLIAGALHLRRQQAPKPKPPTSVQMRPGELGSFKEGLAALPRAIAQQLKAPIHLQTPVQEITPDPKGGYLLRSGEQTWRARSVVLATPAYQTAELVAPFQPAIARVLATIPYPTMACVVLAYPAGLGRSVRPGFGVLIPRSQGIRTLGTIWSSCLFPQRTPAGWQVFTSTIGGATDPDLASLSEEAIVQQVQQDLNRLLDLPAAKARLLGMKVWRRAIPQYMVGYPEQWQQVTHALSQTPGLFLCSNYAEGVALGDRVEHGNRTAAAVAAYLSGGQP	+ (‘+’ per each 10-fold resistance)	+++++ (until ‘+++++’ as maximal resistance)	+++ (‘+’ per each 10-fold resistance)	+++ (‘+’ per each 10-fold resistance)	+++++ (until ‘+++++’ as maximal resistance)	+++++ (until ‘+++++’ as maximal resistance)	++++ (‘+’ per each 10-fold resistance)
CyPPO19 A167C + V305L + F360V: variant of CyPPO19 PPO protein (SEQ ID NO: 1) (protein, Synthetic_PPO of Thermosynechococcus elongatus PKUAC-SCTE542 (comprising GenBank No. CP032152.1)) MSEVDVAIVGGGLSGLSLAWRLQQSAPQYSVVLLEASDRLGGNITTQTAEGFVWELGPNSFAPTPALLQLIAEVGLQSELIRGDRHLPRYIYWRGQLYPLQPTRPLALATSNLLSPWGKVRAALGALGFVPPYLGSGDESVNSFFRRHLGQEVAERLVAPFVSGVYCGDPQQLSAAAAFRRIAQLEKLGGGLIAGALHLRRQQAPKPKPPTSVQMRPGELGSFKEGLAALPRAIAQQLKAPIHLQTPVQEITPDPKGGYLLRSGEQTWRARSVVLATPAYQTAELVAPFQPAIARVLATIPYPTLACVVLAYPAGLGRSVRPGFGVLIPRSQGIRTLGTIWSSCLFPQRTPAGWQVFTSVIGGATDPDLASLSEEAIVQQVQQDLNRLLDLPAAKARLLGMKVWRRAIPQYMVGYPEQWQQVTHALSQTPGLFLCSNYAEGVALGDRVEHGNRTAAAVAAYLSGGQP	+ (‘+’ per each 10-fold resistance)	+++++ (until ‘+++++’ as maximal resistance)	+ (‘+’ per each 10-fold resistance)	++ (‘+’ per each 10-fold resistance)	+++++ (until ‘+++++’ as maximal resistance)	+ (‘+’ per each 10-fold resistance)	++++ (‘+’ per each 10-fold resistance)
CyPPO19 V165C + I408W + F360T: variant of CyPPO19 PPO protein (SEQ ID NO: 1) (protein, Synthetic_PPO of Thermosynechococcus elongatus PKUAC-SCTE542 (comprising GenBank No. CP032152.1)) MSEVDVAIVGGGLSGLSLAWRLQQSAPQYSVVLLEASDRLGGNITTQTAEGFVWELGPNSFAPTPALLQLIAEVGLQSELIRGDRHLPRYIYWRGQLYPLQPTRPLALATSNLLSPWGKVRAALGALGFVPPYLGSGDESVNSFFRRHLGQEVAERLVAPFVSGCYAGDPQQLSAAAAFRRIAQLEKLGGGLIAGALHLRRQQAPKPKPPTSVQMRPGELGSFKEGLAALPRAIAQQLKAPIHLQTPVQEITPDPKGGYLLRSGEQTWRARSVVLATPAYQTAELVAPFQPAIARVLATIPYPTVACVVLAYPAGLGRSVRPGFGVLIPRSQGIRTLGTIWSSCLFPQRTPAGWQVFTSTIGGATDPDLASLSEEAIVQQVQQDLNRLLDLPAAKARLLGMKVWRRAWPQYMVGYPEQWQQVTHALSQTPGLFLCSNYAEGVALGDRVEHGNRTAAAVAAYLSGGQP	+ (‘+’ per each 10-fold resistance)	++++ (‘+’ per each 10-fold resistance)	+ (‘+’ per each 10-fold resistance)	++ (‘+’ per each 10-fold resistance)	++++ (‘+’ per each 10-fold resistance)	+++ (‘+’ per each 10-fold resistance)	++++ (‘+’ per each 10-fold resistance)
CyPPO19 A167I + V305M + F360L: variant of CyPPO19 PPO protein (SEQ ID NO: 1) (protein, Synthetic_PPO of Thermosynechococcus elongatus PKUAC-SCTE542 (comprising GenBank No. CP032152.1)) MSEVDVAIVGGGLSGLSLAWRLQQSAPQYSVVLLEASDRLGGNITTQTAEGFVWELGPNSFAPTPALLQLIAEVGLQSELIRGDRHLPRYIYWRGQLYPLQPTRPLALATSNLLSPWGKVRAALGALGFVPPYLGSGDESVNSFFRRHLGQEVAERLVAPFVSGVYIGDPQQLSAAAAFRRIAQLEKLGGGLIAGALHLRRQQAPKPKPPTSVQMRPGELGSFKEGLAALPRAIAQQLKAPIHLQTPVQEITPDPKGGYLLRSGEQTWRARSVVLATPAYQTAELVAPFQPAIARVLATIPYPTMACVVLAYPAGLGRSVRPGFGVLIPRSQGIRTLGTIWSSCLFPQRTPAGWQVFTSLIGGATDPDLASLSEEAIVQQVQQDLNRLLDLPAAKARLLGMKVWRRAIPQYMVGYPEQWQQVTHALSQTPGLFLCSNYAEGVALGDRVEHGNRTAAAVAAYLSGGQP	+ (‘+’ per each 10-fold resistance)	+++++ (until ‘+++++’ as maximal resistance)	+++ (‘+’ per each 10-fold resistance)	+++ (‘+’ per each 10-fold resistance)	+++++ (until ‘+++++’ as maximal resistance)	+++++ (until ‘+++++’ as maximal resistance)	+++++ (until ‘+++++’ as maximal resistance)

From US12698507B2, “Methods and compositions for conferring and/or enhancing herbicide tolerance using protoporphyrinogen IX oxidase of various cyanobacteria or variant thereof” (FarmHannong Co., Ltd., priority 2019, dated 2026)
